Results: the supplement of paper PMC10065799, “High-throughput profiling of sequence recognition by tyrosine kinases and SH2 domains using bacterial peptide display” (eLife, 2023)

Columns and labels:
Fyn = Fyn (UniProt P06241); experiment: phosphorylation enrichment, bacterial display (enrichment ratio); higher = better substrate or ligand; peptides without Tyr show the background
c-Abl (mouse) = experiment: as above
Hck = Hck (UniProt P08631); experiment: as above
Fes = Fes (UniProt P07332); experiment: as above
FGFR3 = FGFR3 (UniProt P22607); experiment: as above
c-Src = experiment: as above
FGFR1 = FGFR1 (UniProt P11362); experiment: as above
Jak2 = Jak2 (UniProt O60674); experiment: as above
EPHB2 = EPHB2 (UniProt P29323); experiment: as above
EPHB1 = EPHB1 (UniProt P54762); experiment: as above
AncSZ = experiment: as above
Fer (mouse) = experiment: as above
MERTK = MERTK (UniProt Q12866); experiment: as above
Grb2 SH2 = Grb2 SH2 (UniProt P62993); experiment: SH2 binding enrichment of the phosphorylated peptide, bacterial display (enrichment ratio); higher = better substrate or ligand; peptides without Tyr show the background
SHP2-C SH2 = experiment: as above
c-Src SH2 = experiment: as above
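Wherever SH2 binding enrichment of the phosphorylated peptide, bacterial display is given: peptide library displayed on the E. coli surface as eCPX fusions, selected cells deep-sequenced, score is each peptide's frequency after selection divided by its frequency in the input.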
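Wherever phosphorylation enrichment, bacterial display is given: 11-residue human phosphosite peptides and single-mutation variants displayed on the E. coli surface, counted by deep sequencing, each peptide's frequency after selection divided by its frequency in the unselected input library; frequency after pTyr selection over input frequency; kinase dosed for 20-30% of maximal phosphorylation in three min.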

Chain of Fes (P07332 whole entry, looked up): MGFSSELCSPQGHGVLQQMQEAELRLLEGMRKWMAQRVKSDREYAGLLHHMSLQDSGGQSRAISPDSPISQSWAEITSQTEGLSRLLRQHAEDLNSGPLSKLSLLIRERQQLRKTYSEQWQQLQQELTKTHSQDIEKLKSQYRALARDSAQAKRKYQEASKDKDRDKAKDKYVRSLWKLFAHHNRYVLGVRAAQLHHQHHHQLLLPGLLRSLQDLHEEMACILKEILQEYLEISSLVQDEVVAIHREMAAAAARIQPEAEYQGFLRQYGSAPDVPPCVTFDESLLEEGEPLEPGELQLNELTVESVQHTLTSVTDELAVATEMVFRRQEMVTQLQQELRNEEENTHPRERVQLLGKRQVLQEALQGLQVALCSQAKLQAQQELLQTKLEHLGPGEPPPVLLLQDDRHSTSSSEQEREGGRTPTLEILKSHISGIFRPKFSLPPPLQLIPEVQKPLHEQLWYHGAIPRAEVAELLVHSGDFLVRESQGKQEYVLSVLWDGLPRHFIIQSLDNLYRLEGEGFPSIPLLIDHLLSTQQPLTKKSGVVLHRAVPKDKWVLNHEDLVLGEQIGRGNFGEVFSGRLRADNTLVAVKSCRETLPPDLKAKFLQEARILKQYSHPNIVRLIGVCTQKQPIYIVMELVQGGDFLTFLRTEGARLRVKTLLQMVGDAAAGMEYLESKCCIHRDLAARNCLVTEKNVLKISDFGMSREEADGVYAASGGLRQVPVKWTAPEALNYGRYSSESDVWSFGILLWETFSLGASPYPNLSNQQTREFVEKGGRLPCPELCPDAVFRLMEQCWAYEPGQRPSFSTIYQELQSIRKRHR
Chain of Hck (P08631 whole entry, looked up): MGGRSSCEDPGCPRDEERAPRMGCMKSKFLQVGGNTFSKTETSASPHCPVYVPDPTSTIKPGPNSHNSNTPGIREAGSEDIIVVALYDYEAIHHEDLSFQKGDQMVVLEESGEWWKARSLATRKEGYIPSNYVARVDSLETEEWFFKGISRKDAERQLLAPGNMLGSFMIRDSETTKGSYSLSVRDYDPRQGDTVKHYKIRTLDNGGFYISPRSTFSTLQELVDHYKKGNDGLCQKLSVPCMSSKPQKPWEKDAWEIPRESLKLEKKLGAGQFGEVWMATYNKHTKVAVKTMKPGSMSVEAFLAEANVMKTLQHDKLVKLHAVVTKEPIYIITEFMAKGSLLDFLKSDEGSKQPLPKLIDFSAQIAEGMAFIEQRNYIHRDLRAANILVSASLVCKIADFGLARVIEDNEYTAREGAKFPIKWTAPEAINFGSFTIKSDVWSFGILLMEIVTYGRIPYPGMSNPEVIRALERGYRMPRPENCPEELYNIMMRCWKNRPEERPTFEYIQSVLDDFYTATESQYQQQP
Chain of FGFR3 (P22607 whole entry, looked up): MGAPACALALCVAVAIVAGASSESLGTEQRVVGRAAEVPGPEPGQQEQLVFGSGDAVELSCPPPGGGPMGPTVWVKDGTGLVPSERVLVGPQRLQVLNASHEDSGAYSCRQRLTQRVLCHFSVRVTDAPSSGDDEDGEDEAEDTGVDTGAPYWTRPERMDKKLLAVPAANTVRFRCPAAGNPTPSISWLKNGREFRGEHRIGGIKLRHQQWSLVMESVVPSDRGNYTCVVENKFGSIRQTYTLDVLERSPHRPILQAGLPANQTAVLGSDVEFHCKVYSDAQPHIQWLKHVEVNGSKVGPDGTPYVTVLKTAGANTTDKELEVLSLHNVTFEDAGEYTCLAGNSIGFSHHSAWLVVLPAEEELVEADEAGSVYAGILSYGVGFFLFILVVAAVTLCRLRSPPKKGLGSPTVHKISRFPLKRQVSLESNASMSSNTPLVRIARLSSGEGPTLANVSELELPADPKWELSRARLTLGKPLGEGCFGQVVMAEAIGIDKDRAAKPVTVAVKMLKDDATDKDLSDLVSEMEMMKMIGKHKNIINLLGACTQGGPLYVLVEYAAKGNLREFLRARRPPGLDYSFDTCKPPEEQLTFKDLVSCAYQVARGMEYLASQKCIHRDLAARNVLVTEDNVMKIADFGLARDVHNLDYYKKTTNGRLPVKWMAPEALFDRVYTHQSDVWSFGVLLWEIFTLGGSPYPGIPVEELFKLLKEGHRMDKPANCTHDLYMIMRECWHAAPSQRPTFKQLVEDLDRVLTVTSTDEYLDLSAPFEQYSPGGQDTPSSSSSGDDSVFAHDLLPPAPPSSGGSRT
Chain of MERTK (Q12866 whole entry, looked up): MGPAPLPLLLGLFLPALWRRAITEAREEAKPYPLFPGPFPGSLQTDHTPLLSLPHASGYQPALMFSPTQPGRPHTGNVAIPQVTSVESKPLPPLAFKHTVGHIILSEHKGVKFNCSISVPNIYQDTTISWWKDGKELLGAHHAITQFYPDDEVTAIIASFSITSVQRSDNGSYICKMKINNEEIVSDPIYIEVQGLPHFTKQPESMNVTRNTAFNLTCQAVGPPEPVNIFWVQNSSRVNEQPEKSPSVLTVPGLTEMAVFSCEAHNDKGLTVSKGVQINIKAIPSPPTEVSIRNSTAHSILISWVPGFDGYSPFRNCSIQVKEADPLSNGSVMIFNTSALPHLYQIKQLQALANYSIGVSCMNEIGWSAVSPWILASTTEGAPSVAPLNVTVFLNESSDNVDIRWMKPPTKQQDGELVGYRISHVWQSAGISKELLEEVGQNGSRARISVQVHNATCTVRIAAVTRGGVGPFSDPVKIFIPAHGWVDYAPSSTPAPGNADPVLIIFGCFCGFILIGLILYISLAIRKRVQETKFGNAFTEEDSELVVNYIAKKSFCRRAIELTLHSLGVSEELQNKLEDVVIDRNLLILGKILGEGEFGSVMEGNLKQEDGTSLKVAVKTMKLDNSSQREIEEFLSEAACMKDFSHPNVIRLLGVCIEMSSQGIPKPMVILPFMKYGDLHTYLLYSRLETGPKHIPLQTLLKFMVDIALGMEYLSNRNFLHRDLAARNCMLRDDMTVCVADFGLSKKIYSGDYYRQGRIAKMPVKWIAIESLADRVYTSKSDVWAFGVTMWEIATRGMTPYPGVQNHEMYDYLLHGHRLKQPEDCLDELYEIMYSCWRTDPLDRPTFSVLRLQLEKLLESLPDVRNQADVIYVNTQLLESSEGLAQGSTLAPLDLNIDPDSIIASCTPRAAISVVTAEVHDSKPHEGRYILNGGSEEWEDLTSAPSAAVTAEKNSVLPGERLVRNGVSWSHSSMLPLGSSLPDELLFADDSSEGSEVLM
Chain of EPHB2 (P29323 whole entry, looked up): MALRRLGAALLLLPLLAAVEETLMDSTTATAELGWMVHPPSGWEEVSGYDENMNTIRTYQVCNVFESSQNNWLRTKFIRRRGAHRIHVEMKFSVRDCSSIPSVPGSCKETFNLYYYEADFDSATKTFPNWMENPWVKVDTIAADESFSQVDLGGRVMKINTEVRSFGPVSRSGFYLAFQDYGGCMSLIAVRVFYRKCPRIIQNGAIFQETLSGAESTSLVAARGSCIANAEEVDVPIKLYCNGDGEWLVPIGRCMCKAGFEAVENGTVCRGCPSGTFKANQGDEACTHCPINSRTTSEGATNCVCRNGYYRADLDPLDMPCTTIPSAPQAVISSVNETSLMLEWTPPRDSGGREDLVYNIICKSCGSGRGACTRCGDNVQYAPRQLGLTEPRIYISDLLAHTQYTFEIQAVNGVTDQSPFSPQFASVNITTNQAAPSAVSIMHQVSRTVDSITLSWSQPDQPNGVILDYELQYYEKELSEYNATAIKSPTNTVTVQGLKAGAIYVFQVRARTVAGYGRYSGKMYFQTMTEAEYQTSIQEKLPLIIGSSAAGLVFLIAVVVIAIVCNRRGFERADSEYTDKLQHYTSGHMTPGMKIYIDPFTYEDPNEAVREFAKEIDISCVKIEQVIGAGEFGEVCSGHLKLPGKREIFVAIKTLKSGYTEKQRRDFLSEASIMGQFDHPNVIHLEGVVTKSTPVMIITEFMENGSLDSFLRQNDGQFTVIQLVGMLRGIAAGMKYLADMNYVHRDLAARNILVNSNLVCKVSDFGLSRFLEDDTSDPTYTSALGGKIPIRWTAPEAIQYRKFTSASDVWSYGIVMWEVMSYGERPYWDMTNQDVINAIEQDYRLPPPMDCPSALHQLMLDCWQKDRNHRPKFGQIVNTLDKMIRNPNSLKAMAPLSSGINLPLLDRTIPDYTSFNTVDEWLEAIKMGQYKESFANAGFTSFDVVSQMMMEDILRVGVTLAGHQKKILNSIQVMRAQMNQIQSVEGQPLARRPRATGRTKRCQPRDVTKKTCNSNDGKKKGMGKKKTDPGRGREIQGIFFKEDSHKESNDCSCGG
Chain of Fyn (P06241 whole entry, looked up): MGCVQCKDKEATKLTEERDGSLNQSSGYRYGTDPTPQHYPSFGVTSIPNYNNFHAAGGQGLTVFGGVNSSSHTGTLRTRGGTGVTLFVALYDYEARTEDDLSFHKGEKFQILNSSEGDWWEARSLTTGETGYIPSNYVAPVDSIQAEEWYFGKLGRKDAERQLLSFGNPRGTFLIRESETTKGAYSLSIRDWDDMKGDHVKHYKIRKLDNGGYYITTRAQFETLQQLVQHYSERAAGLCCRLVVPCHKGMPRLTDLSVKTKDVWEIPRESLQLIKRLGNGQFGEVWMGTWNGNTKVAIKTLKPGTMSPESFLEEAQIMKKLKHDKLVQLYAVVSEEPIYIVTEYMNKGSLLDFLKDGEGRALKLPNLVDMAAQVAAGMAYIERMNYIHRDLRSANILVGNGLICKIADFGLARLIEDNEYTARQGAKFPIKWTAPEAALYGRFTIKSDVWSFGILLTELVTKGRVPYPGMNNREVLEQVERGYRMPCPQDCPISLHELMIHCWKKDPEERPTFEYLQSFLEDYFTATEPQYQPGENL

Row | Sequence | SH2 binding enrichment (Grb2 SH2) | SH2 binding enrichment (SHP2-C SH2) | SH2 binding enrichment (c-Src SH2) | phosphorylation enrichment (Fyn) | phosphorylation enrichment (c-Abl (mouse)) | phosphorylation enrichment (Hck) | phosphorylation enrichment (Fes) | phosphorylation enrichment (FGFR3) | phosphorylation enrichment (c-Src) | phosphorylation enrichment (FGFR1) | phosphorylation enrichment (Jak2) | phosphorylation enrichment (EPHB2) | phosphorylation enrichment (EPHB1) | phosphorylation enrichment (AncSZ) | phosphorylation enrichment (Fer (mouse)) | phosphorylation enrichment (MERTK)
1 | WSISFYPQVIM [CTNS_Y143] | 0.883 | 0.588 | 0.571 | 0.354 | 0.623 | 0.399 | 1.33 | 0.805 | 0.35 | 0.513 | 1.19 | 0.552 | 0.586 | 1.21 | 0.471 | 0.301
2 | WSRAMYPDLGP [STARD8_Y330] | 1.02 | 0.933 | 0.608 | 0.463 | 0.52 | 0.463 | 0.779 | 0.575 | 0.39 | 0.467 | 0.579 | 0.397 | 0.396 | 0.745 | 0.435 | 0.478
3 | WYQTKYEELQV [KRT6B_Y360_I365V] | 0.832 | 0.834 | 6.2 | 0.519 | 0.741 | 0.723 | 1.28 | 0.753 | 0.452 | 0.521 | 1.02 | 0.707 | 0.61 | 1.11 | 0.568 | 0.394
4 | YDCKWYIPLTD [BCR_Y756] | 0.863 | 0.707 | 0.597 | 0.483 | 0.914 | 0.571 | 1.41 | 0.805 | 0.69 | 0.839 | 1.68 | 0.711 | 0.689 | 1.47 | 0.502 | 1.51
5 | YDDGKYVYVVT [RPS6KA3_Y488] | 0.907 | 0.531 | 0.595 | 1.43 | 0.768 | 1.04 | 1.27 | 1.38 | 1.3 | 1.63 | 1.34 | 0.669 | 0.724 | 1.25 | 0.811 | 0.941
6 | YDGKEYDPVEA [MAPRE2_Y167] | 0.912 | 0.502 | 0.604 | 0.556 | 0.935 | 0.567 | 1.42 | 0.836 | 0.645 | 0.535 | 1.22 | 0.637 | 0.772 | 1.21 | 0.621 | 0.497
7 | YLEEEYVKAVG [TF_Y674_G671E] | 0.75 | 0.685 | 0.323 | 0.491 | 1.01 | 0.575 | 1.32 | 0.893 | 0.505 | 0.606 | 1.18 | 0.63 | 0.629 | 1.36 | 0.615 | 0.454
8 | YQQLFYLLQIN [IQGAP2_Y890_T894I] | 1.31 | 1.28 | 0.91 | 0.625 | 1.3 | 0.911 | 1.81 | 2.15 | 1 | 2.23 | 1.67 | 0.829 | 1.21 | 1.57 | 0.751 | 1.31
9 | YRVAGYETQGG [TIA1_Y383] | 0.608 | 0.58 | 0.391 | 0.378 | 0.906 | 0.37 | 0.646 | 0.352 | 0.295 | 0.399 | 0.392 | 0.338 | 0.329 | 0.436 | 0.351 | 0.324
10 | YSKTQYNQVPR [CXADR_Y318_S323R] | 0.974 | 0.533 | 0.589 | 0.319 | 0.465 | 0.487 | 0.542 | 0.532 | 0.462 | 0.421 | 0.451 | 0.431 | 0.315 | 0.531 | 0.471 | 0.514

Second part, led by results:

Row | SH2 binding enrichment (Grb2 SH2) | SH2 binding enrichment (SHP2-C SH2) | SH2 binding enrichment (c-Src SH2) | Sequence | phosphorylation enrichment (Fyn) | phosphorylation enrichment (c-Abl (mouse)) | phosphorylation enrichment (Hck) | phosphorylation enrichment (Fes) | phosphorylation enrichment (FGFR3) | phosphorylation enrichment (c-Src) | phosphorylation enrichment (FGFR1) | phosphorylation enrichment (Jak2) | phosphorylation enrichment (EPHB2) | phosphorylation enrichment (EPHB1) | phosphorylation enrichment (AncSZ) | phosphorylation enrichment (Fer (mouse)) | phosphorylation enrichment (MERTK)
11 | 0.893 | 0.639 | 1 | WGTAEYDSVVA [MAP1A_Y1883] | 0.66 | 0.703 | 1.16 | 1.24 | 0.817 | 0.819 | 0.583 | 1.18 | 0.86 | 0.685 | 1.4 | 1.57 | 0.456
12 | 1.14 | 1.35 | 0.807 | WIPIQYPIISE [NOG_Y222] | 0.427 | 0.59 | 0.439 | 0.807 | 0.571 | 0.354 | 0.394 | 0.622 | 0.439 | 0.421 | 0.782 | 0.508 | 0.343
13 | 0.972 | 0.687 | 1.37 | WQQQSYLYSGI [CTNNB1_Y30_D32Y] | 7.05 | 0.851 | 7.73 | 1.48 | 1.03 | 5.93 | 1.07 | 1.52 | 5.03 | 3.97 | 1.16 | 5.61 | 7.49
14 | 0.742 | 0.623 | 0.598 | YDGGCYEQLFV [MC4R_Y41_S36Y] | 2.04 | 1.01 | 3.08 | 1.38 | 1.45 | 2.71 | 1.18 | 1.21 | 0.968 | 1.24 | 2.51 | 11.4 | 1.17
15 | 1.11 | 0.675 | 1.1 | YETSHYLASPD [CTNND2_Y1217_P1218L] | 0.523 | 0.821 | 0.554 | 0.961 | 0.633 | 0.529 | 0.649 | 0.809 | 0.767 | 0.59 | 1.09 | 0.685 | 0.784
16 | 0.824 | 0.64 | 0.548 | YGMQLYQKYMH [GRB14_Y347_N349K] | 1.31 | 0.648 | 2.08 | 0.694 | 0.581 | 2.29 | 0.572 | 0.561 | 2.42 | 1.15 | 0.844 | 2.09 | 1.92
17 | 0.829 | 0.538 | 0.58 | YKEDPYLVVNP [MCM6_Y810_E806K] | 1.04 | 0.662 | 0.591 | 1.11 | 1.09 | 1.74 | 1.24 | 1.03 | 0.515 | 0.405 | 1.19 | 0.46 | 0.455
18 | 0.747 | 0.666 | 0.972 | YQLENCCNGGG [INS_Y108_Y108C] | 0.689 | 0.556 | 0.563 | 0.903 | 0.621 | 0.59 | 0.547 | 0.763 | 0.522 | 1.05 | 0.829 | 0.535 | 0.601
19 | 0.774 | 0.774 | 0.683 | YRDALYKFIVD [PHEX_Y250_M253I] | 0.623 | 0.916 | 0.706 | 1.25 | 1.38 | 0.638 | 0.952 | 1 | 1.02 | 1.97 | 1.08 | 0.759 | 1.65
